Experiments:
Conditions in all cases: protein: commercial;commercial; tags: ;; copies: 1;1; label: 5' biotin on strand 2; blunt
p65 (RelA);p50 (NF-kB1) [1] = biological target: T1, p65 (RelA);p50 (NF-kB1) (;, UniProt Q04206;P19838 1-551;1-433, |); experiment: EMSA; with OGG1 4 ng; highest shifted amount of κB1 oligos; 10 mM Tris-HCl pH 8.0, 5 mM NaCl, 1 mM EDTA, 1 mM DTT, 0.1 mg/ml BSA, 0.1 µg/µl poly(dI-dC) (stated for NE reactions), 10 fmol probe, 10 µl, RT 5-10 min; 6% gel 0.5x TBE 4 °C
p65 (RelA);p50 (NF-kB1) [2] = biological target: T1, p65 (RelA);p50 (NF-kB1); experiment: EMSA; with OGG1 4 ng; higher than Wt; 10 mM Tris-HCl pH 8.0, 5 mM NaCl, 1 mM EDTA, 1 mM DTT, 0.1 mg/ml BSA, 0.1 µg/µl poly(dI-dC) (stated for NE reactions), 10 fmol probe, 10 µl, RT 5-10 min; 6% gel 0.5x TBE 4 °C
p65 (RelA);p50 (NF-kB1) [3] = biological target: T1, p65 (RelA);p50 (NF-kB1); experiment: EMSA; no OGG1; complex from 5 min; 10 mM Tris-HCl pH 8.0, 5 mM NaCl, 1 mM EDTA, 1 mM DTT, 0.1 mg/ml BSA, 0.1 µg/µl poly(dI-dC) (stated for NE reactions), 10 fmol probe, 10 µl, RT 5-10 min; 6% gel 0.5x TBE 4 °C

T1 sequence (Q04206 whole entry, chain 1 of 2): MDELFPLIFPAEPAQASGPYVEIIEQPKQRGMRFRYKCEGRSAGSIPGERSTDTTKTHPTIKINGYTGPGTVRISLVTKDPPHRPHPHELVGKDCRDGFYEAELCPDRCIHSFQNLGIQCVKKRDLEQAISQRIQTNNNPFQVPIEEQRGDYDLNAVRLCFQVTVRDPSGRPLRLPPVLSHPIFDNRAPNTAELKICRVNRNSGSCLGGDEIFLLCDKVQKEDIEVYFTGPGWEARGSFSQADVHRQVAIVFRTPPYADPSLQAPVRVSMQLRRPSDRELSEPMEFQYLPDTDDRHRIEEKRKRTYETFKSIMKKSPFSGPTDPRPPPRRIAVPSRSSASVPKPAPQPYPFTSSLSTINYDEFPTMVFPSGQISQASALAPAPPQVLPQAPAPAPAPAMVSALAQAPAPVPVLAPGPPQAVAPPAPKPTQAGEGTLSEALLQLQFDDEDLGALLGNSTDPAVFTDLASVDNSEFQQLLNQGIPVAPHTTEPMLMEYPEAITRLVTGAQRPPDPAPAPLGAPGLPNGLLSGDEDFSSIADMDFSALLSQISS
T1 sequence (P19838 1-433, chain 2 of 2): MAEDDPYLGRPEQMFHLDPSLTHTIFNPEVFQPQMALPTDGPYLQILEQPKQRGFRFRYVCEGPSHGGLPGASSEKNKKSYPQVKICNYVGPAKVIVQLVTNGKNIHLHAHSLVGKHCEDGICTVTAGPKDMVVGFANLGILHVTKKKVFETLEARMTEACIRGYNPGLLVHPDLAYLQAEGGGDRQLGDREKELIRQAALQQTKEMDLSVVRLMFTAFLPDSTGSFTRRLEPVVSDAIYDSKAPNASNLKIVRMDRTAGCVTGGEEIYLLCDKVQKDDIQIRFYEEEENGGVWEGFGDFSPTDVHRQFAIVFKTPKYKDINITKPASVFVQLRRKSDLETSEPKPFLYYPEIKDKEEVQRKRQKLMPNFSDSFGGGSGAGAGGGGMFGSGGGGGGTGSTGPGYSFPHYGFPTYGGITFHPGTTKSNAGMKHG

B1: κB1-G3 (dsDNA)
DNA 1: TTCCCTGGTCCCCGGGCTTTTCCAGACATCG
DNA 2: CGATGTCTGGAAAAGCCCGGGGACCAGGGAA
modifications: 8-oxoG at strand 2 position 27 (opposite C5 of strand 1)
- binding result (p65 (RelA);p50 (NF-kB1) [1]): binds

B2: κB2-G3 (dsDNA)
DNA 1: TGAGGGGACCCTGAGCTCAGGGAATTTCCCTGG
DNA 2: CCAGGGAAATTCCCTGAGCTCAGGGTCCCCTCA
modifications: 8-oxoG at strand 1 position 4 (number label read as following the base)
- binding result (p65 (RelA);p50 (NF-kB1) [2]): binds

B3: κB2-G4 (dsDNA)
DNA 1: TGAGGGGACCCTGAGCTCAGGGAATTTCCCTGG
DNA 2: CCAGGGAAATTCCCTGAGCTCAGGGTCCCCTCA
modifications: 8-oxoG at strand 1 position 7
- binding result (p65 (RelA);p50 (NF-kB1) [2]): binds

B4: κB2-Wt (dsDNA)
DNA 1: TGAGGGGACCCTGAGCTCAGGGAATTTCCCTGG
DNA 2: CCAGGGAAATTCCCTGAGCTCAGGGTCCCCTCA
- binding result (p65 (RelA);p50 (NF-kB1) [3]): binds

B5: κB2-G6 (dsDNA)
DNA 1: TGAGGGGACCCTGAGCTCAGGGAATTTCCCTGG
DNA 2: CCAGGGAAATTCCCTGAGCTCAGGGTCCCCTCA
modifications: 8-oxoG at strand 2 position 23 (opposite C11 of strand 1)
- binding result (p65 (RelA);p50 (NF-kB1) [2]): binds
